We go through 14 molecules from patent publication US20220073618A1 (NANJING GENSCRIPT BIOTECH, published 2022).

B1: Chimeric antibody (antibody, V domains shown)
VH: DVQLQESGPDLVKPSQSLSLTCTVTGYSITSGYTWHWIRQFPGNKLEWMGYIHYSGSTKYNPSLKSRFSITRDTSKNQFFLQLNSMTAEDTATYYCARNSLFASWGHGTLVTVSA
VL: DIVLTQSPASLAVSLGQRATISCRASESVDTYGDSFMHWFQQKPGQPPKLLIYRASNLESGIPARFSGSGSRTDFTLTINPVEADDVATYYCQQSNEAPYTFGGGTKLEIK
notes: also called mPD-L1Ab-Chim
B2: AH01950 (prokaryotically expressed antibody product) (Fab, V domains shown)
VH: QVQLQESGPGLVKPSQTLSLTCTVSGYSITSGYTWHWIRQHPGKGLEWIGYIHYSGSTKYNPSLKSRVTISRDTSKNQFSLKLSSVTAADTAVYYCARNSLFASWGQGTLVTVSS
VL: DIVLTQSPDSLAVSLGERATINCRASESVDTYGDSFMHWFQQKPGQPPKLLIYRASNLESGVPDRFSGSGSGTDFTLTISSLQAEDVAVYYCQQSNEAPYTFGGGTKLEIK
B3: AH01964 (prokaryotically expressed antibody product) (Fab, V domains shown)
VH: B2 VH
VL: DIVMTQSPDSLAVSLGERATINCRASESVDTYGDSFMHWYQQKPGQPPKLLIYRASNLESGVPDRFSGSGSGTDFTLTISSLQAEDVAVYYCQQSNEAPYTFGGGTKL
B4: AH01963 (prokaryotically expressed antibody product) (Fab, V domains shown)
VH: B2 VH
VL: B2 VL with F40Y, L82V
B5: AH01947 (prokaryotically expressed antibody product) (Fab, V domains shown)
VH: B2 VH with R72V
VL: B2 VL
B6: AH02033 (prokaryotically expressed antibody product) (Fab, V domains shown)
VH: B2 VH with S25T, I49M, V68F
VL: B2 VL with V62I
B7: AH01946 (prokaryotically expressed antibody product) (Fab, V domains shown)
VH: B2 VH with V86M
VL: B2 VL with L82V
B8: AH02030 (prokaryotically expressed antibody product) (Fab, V domains shown)
VH: B2 VH with S25T, V68F, S71T
VL: B2 VL with F40Y, G72R
B9: AH02029 (prokaryotically expressed antibody product) (Fab, V domains shown)
VH: B2 VH with S25T, T69S
VL: B2 VL with F40Y
B10: AH01947 (antibody, human IgG1, V domains shown)
VH: B2 VH with R72V
VL: B2 VL
notes: also called mPD-L1Ab-CBM clone AH01947
B11: AH01964 (antibody, human IgG1, V domains shown)
VH: B2 VH
VL: B3 VL
notes: also called mPD-L1Ab-CBM clone AH01964
B12: AH02030 (antibody, human IgG1, V domains shown)
VH: B2 VH with S25T, V68F, S71T
VL: B2 VL with F40Y, G72R
notes: also called mPD-L1Ab-5BM clone AH02030
B13: AH02033 (antibody, human IgG1, V domains shown)
VH: B2 VH with S25T, I49M, V68F
VL: B2 VL with V62I
notes: also called mPD-L1Ab-5BM clone AH02033
B14: Chimeric antibody (as ranked in Table 2) (Fab, V domains shown)
VH: B1 VH
VL: B1 VL

Positions count from the first letter of the chain named.

The target in the first test is T1, human PD-L1 protein (human, UniProt Q9NZQ7 19-238, limits assumed). As to the kind of experiment: ELISA on human PD-L1 protein; control antibody stored at -80 C. As for the experimental part: (§1) The antibody samples were treated for 20 min at various temperature gradients respectively, and then centrifuged to remove the pellet. Then the amount of remaining antibody was evaluated by ELISA. (The temperature gradient includes: room temperature, 30° C., 40° C., 50° C., 60° C., 70° C., […]) (FIG. 4)
T1 sequence (Q9NZQ7 19-238 limits assumed): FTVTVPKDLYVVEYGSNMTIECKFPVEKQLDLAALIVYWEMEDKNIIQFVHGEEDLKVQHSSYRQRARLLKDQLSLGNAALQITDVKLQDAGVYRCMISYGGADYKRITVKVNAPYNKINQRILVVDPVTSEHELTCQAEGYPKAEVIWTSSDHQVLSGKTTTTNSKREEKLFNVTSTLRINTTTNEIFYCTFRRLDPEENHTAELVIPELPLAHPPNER
A word on the EC50 (read off the curve): it is the concentration giving half of the maximal effect. Read a low EC50 (read off the curve) as an effect from little substance. For the molecule B1, the concentration giving a half-maximal response (EC50 (read off the curve)) is ~10 ng/mL.

In another test the target is T2, PD-L1/Fc (UniProt Q9NZQ7 19-238, limits assumed).
T2 construct: not shown: Fc part
T2 sequence (Q9NZQ7 19-238 limits assumed): as above
The experiment in a line: SPR (Biacore 8K), prokaryotically expressed antibody as ligand, PD-L1/Fc as analyte, 1:1 binding model.
As a reminder, the Kd is a measure of binding affinity in units of concentration. Broadly, the koff is the first-order rate constant of dissociation. The kon is the rate constant with which the complex forms. On to B2, for which the affinity, expressed as Kd, was 36.7 pM; the koff stood at 1.9e-05 s⁻¹; the association rate constant (kon) amounted to 518000 M⁻¹ s⁻¹.

With B3, the Kd is 46.8 pM, the koff stood at 2.48e-05 s⁻¹ and the kon was 530000 M⁻¹ s⁻¹.

B4: the Kd worked out at 34.4 pM, the off-rate (koff) worked out at 1.63e-05 s⁻¹ and the association rate constant (kon) worked out at 474000 M⁻¹ s⁻¹.

B5 had a dissociation constant Kd of 82.2 pM, a koff of 4.38e-05 s⁻¹ and a kon of 533000 M⁻¹ s⁻¹.

B6 yielded an equilibrium dissociation constant (Kd) of 0.0676 pM, an off-rate constant (koff) of 2.71e-08 s⁻¹ and an on-rate constant (kon) of 401000 M⁻¹ s⁻¹.

Turning to B7, the Kd was found to be 9.4 pM, the dissociation rate constant (koff) turned out to be 4.72e-06 s⁻¹ and the kon stood at 502000 M⁻¹ s⁻¹.

As for B8, the affinity, expressed as Kd, was 43.9 pM; the koff was determined as 1.58e-05 s⁻¹; the kon came out at 359000 M⁻¹ s⁻¹.

Consider B9, for which binding was put at a Kd of 56.8 pM, the koff turned out to be 1.93e-05 s⁻¹ and the association rate constant (kon) amounted to 339000 M⁻¹ s⁻¹.

Another test deals with T1, human PD-L1 protein. The experiment in a line: ELISA on human PD-L1 protein; antibody kept at 40 C for 0 (D0), 7 (D7) or 14 (D14) days. As to the method:
The antibody samples were treated separately at 40° C., and then centrifuged to remove the pellet. Then the amount of remaining antibody was evaluated by ELISA. (test after treatment at 40° C. for 7 days (D7) and 14 days (D14) separately; for each test, the untreated sample (D0) stored at −80° C. is used as a control) (FIG. 3)
(ELISA stands for enzyme-linked immunosorbent assay.)
Regarding B1, the 50% effective concentration (EC50 (read off the curve)) was ~10 ng/mL.

A further test has as its target T1, human PD-L1 protein. The experiment in a line: ELISA on human PD-L1 protein; antibody treated for 20 min (overlapping curves, room temperature to 60 C by the legend, not told apart). As to the method:
as §1
Take B1: the concentration giving a half-maximal response (EC50 (read off the curve)) is ~8 ng/mL.

The target of another test is T3, PD-L1-HIS recombinant protein (human, UniProt Q9NZQ7 19-238, limits assumed).
T3 construct: not shown: His tag
T3 sequence (Q9NZQ7 19-238 limits assumed): as above
As to the kind of experiment: SPR (Biacore 8K), antibody captured on chip, PD-L1-HIS analyte 2.5-80 nM, 1:1 binding model. As for the experimental part: The chip surface was equilibrated with HBS-EP buffer at a flow rate of 10 μl/min for 5 min, and then a 1:1 mixture of “NHS+EDC” was injected at a flow rate of 10 μl/min for 420 sec to activate the chip. The capture antibody (goat anti-murine IgG) diluted in 10 mM sodium acetate buffer was injected for about 420 sec at a flow rate of 10 μl/min for coupling, and finally ethanolamine was injected for 420 sec at a flow rate of 10 μl/min to block the surface.
Three pre-cycles were performed with the HBS-EP buffer as a sample to balance the chip to stabilize the baseline. The antibody diluted in HBS-EP buffer was injected for 30 sec at a flow rate of 10 μl/min (where the antibody-antigen binding signal was controlled to about 100 RU by adjusting the capture time between 0-5 min), and then the chip was equilibrated with the buffer for 1 min. The low-concentration antigen 2.5 nM PD-L1-HIS was injected at a flow rate of 30 μl/min for 240/300 seconds, to allow the antigen to bind to the antibody, and then the buffer was injected at a flow rate of 30 μl/min for 720/600 seconds for dissociation. 50 mM HCl were injected three times each for 15 s at a flow rate of 100 μl/min for regeneration, to complete one cycle. The antigen concentration was changed (such as 5 nM PD-L1-HIS) to carry out the cycle for measurement at a next gradient concentration until all gradient concentrations (2.5 nM, 5 nM, 10 nM, 20 nM, 40 nM, 80 nM PD-L1-HIS) and the replicate (such as 10 nM PD-L1-HIS) were tested.
The experimental data was double subtracted (minus the background values of the control channel and zero concentration), and fitted to the “1:1 binding” model in the Biacore 8K evaluation software. Biacore 8K was used to determine the affinity of the antibody to the PD-L1-HIS recombinant protein.
(In general: In SPR one partner is held on a chip, and binding of the other changes the refractive index at the surface.)
Turning to B1, the dissociation constant Kd amounted to 1270 pM, the koff was determined as 0.000219 s⁻¹ and the kon is 172000 M⁻¹ s⁻¹.

With B10, the equilibrium dissociation constant (Kd) was found to be 3110 pM, the dissociation rate constant (koff) is 0.000714 s⁻¹ and the association rate constant (kon) amounted to 230000 M⁻¹ s⁻¹.

As to B11, the Kd is 1760 pM, the koff stood at 0.00037 s⁻¹ and the kon worked out at 210000 M⁻¹ s⁻¹.

As for B12, the dissociation constant Kd amounted to 1170 pM, the koff was 0.000216 s⁻¹ and the association rate constant (kon) came out at 185000 M⁻¹ s⁻¹.

For the molecule B13, the dissociation constant Kd was found to be 903 pM, the koff turned out to be 0.000166 s⁻¹ and the on-rate constant (kon) is 184000 M⁻¹ s⁻¹.

The target in a further test is T2, PD-L1/Fc. As to the kind of experiment: SPR (Biacore 8K), antibody as ligand, PD-L1/Fc as analyte, 1:1 binding model.
Consider B14, for which the dissociation constant (Kd) was 58 pM, the dissociation rate constant (koff) amounted to 2.03e-05 s⁻¹ and the kon was 349000 M⁻¹ s⁻¹.
